Experimental data as given in patent publication US20170306015A1 (DEUTSCHES KREBSFORSCHUNGSZENTRUM STIFTUNG DES FFENTLICHEN …, published 2017).

Target: T1, L1-Fc (human L1-Fc protein comprising the ectodomain of L1) (human, UniProt P32004 20-1120)
T1 construct: extracellular domain; also called L1CAM; CD171; not shown: Fc part
Assay: SPR, BIAcore 3000, L1-Fc immobilised on CM5 chip, antibody injected
Description: (§1) Affinity to L1 may be determined by methods known in the art, as for example by surface plasmon resonance. The binding analysis for L1-OV52.24 was performed using a BIAcore 3000 equipped with a CM5 sensor chip. Briefly, a BIAcore CM5 chip was activated with EDC/NHS and various levels of L1-Fc were captured onto the activated surface. The remaining active sites were blocked by ethanolamine/HCl. L1-OV52.24 was bound to the L1-Fc surface and allowed to dissociate over time. The association and dissociation phases for each injection over each density surface were subjected to kinetic analysis.
as §1, with “The” for “Affinity to L1 may be determined by methods known in the art, as for example by surface plasmon resonance. The”, “analysis” for “analysis for L1-OV52.24”, “L1-mAb were” for “L1-OV52.24 was”

T1 sequence (P32004 20-1120): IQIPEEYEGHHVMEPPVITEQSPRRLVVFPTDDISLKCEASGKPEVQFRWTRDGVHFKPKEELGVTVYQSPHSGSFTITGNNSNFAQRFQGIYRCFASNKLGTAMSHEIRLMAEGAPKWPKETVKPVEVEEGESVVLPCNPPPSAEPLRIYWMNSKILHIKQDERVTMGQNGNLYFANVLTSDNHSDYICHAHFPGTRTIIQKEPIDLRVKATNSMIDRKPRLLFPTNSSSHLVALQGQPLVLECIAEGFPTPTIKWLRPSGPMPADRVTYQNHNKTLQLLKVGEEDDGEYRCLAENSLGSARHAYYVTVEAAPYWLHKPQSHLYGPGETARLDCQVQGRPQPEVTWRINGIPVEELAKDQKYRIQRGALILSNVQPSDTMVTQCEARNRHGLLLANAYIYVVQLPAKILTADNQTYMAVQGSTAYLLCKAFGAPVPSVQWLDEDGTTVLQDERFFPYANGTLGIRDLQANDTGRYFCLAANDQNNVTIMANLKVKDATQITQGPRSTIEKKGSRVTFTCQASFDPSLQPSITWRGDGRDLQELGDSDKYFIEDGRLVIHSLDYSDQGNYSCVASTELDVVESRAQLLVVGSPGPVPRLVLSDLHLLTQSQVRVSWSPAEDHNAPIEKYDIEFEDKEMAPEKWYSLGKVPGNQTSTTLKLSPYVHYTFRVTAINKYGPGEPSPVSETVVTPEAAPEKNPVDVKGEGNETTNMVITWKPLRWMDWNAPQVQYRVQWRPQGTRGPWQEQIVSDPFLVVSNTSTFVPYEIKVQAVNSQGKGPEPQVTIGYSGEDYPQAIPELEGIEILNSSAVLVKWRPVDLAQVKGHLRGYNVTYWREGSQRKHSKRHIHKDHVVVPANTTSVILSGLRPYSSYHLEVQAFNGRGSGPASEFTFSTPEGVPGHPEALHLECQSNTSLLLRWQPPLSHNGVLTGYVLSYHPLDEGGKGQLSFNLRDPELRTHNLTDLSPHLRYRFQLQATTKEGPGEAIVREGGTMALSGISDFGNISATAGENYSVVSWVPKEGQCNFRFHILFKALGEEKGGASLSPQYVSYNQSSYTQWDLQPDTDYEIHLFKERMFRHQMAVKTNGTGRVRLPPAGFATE

B1: monoclonal antibody L1-OV52.24 (antibody, IgG1, V domains shown)
VH: EVQLQQSGAELVRPGALVKLSCKASGFNIKDYYMQWVKQRPEQGLEWIGWIDPENGKTVFDPKFRGKASISADTSSNTAYLQLSSLTSEDTAVYYCARWNPLAFWGQGTLVTVSS
VL: DIVMTQSQKFMSTSVGDRVSVTCKASQNVGTNVAWYQQKPGHSPKALIYSTSYRYSGVPDRFTGSGSGTDFTLTIRNVQSEDLAEYFCQQYNTYPYTFGGGTKLEIK
notes: also called mAb L1-OV52.24; L1CAM mAb OV52.24
For B1, the Kd was 2.41 nM.
